{"source": "patent US7601687", "key": {"[1]": {"molecular_target": "B type Insulin Receptor of HIT-T15 cells (endogenous) (hamster)", "test": "cell-based or functional assay"}, "[2]": {"molecular_target": "B type Insulin Receptor of islet cells (endogenous) (rat or mouse (not stated for the experiment))", "test": "cell-based or functional assay"}}, "data": [{"substance": "insulin (ligand)", "values": [{"measurement": "amount of exogenous insulin necessary to trigger βGK promoter activity (βGK promoter-driven GFP expression, HIT cells, FIG. 4B)", "setting": "[1]", "result": 20, "unit": "µU per ml"}, {"measurement": "βGK mRNA levels in pancreatic islets (FIG. 4A)", "setting": "[2]", "result": 50, "unit": "µU per ml"}]}]}
